Experimental data taken from article PMC3907554, “Crystal Structure of an (R)-Selective ω-Transaminase from Aspergillus terreus” (PLoS ONE, 2014).

Biological target: the molecule itself
Assay: crystal structure; X-ray, 1.63 Å, space group C222(1); crystals from Morpheus condition H02 (10% w/v PEG 8000, 20% v/v ethylene glycol, amino acid mix, 0.1 M MES/imidazole pH 6.5), 18°C; two chains in the asymmetric unit

B1: (R)-selective ω-transaminase from Aspergillus terreus (enzyme, UniProt Q0C8G1 1-325, looked up)
chain: MASMDKVFAGYAARQAILESTETTNPFAKGIAWVEGELVPLAEARIPLLDQGFMHSDLTYDVPSVWDGRFFRLDDHITRLEASCTKLRLRLPLPRDQVKQILVEMVAKSGIRDAFVELIVTRGLKGVRGTRPEDIVNNLYMFVQPYVWVMEPDMQRVGGSAVVARTVRRVPPGAIDPTVKNLQWGDLVRGMFEAADRGATYPFLTDGDAHLTEGSGFNIVLVKDGVLYTPDRGVLQGVTRKSVINAAEAFGIEVRVEFVPVELAYRCDEIFMCTTAGGIMPITTLDGMPVNGGQIGPITKKIWDGYWAMHYDAAYSFEIDYNERN
modifications: pyridoxal 5'-phosphate (PLP) covalently bound to Lys180 (internal aldimine), present in part; the other state is free Lys180 with a PLP-amino acid adduct (ligand code PGD)
notes: ω-(R)-transaminase from Aspergillus terreus, gene codon-optimized for E. coli; Cloned through NcoI and XhoI into pET28a(+); also called AT-ωTA; (R)-ω-transaminase; source: E. coli BL21-Gold(DE3), pET28a(+), purified (Ni Sepharose, SEC on Superdex 200); not shown: His-Tag, C-terminal, kept
stoichiometry N: 2
